Reference: patent US12384850 (SYSTIMMUNE, dated 2025)
Changes are numbered by the printed parent chain. Each block holds one binder with its values, some of them ahead of it.

Experiments:
[1] = target: T1, human 41BB (human, UniProt Q07011 24-255); assay: FACS on human 41BB transfected CHO cells
T1 construct: whole, on cells; also called 41BB expressing CHO cells; human 41BB transfected CHO cells
Method: (§1) Example 2: FACS Analysis of Tetra-Specific GNC Antibody Binding to Human 41BB Transfected CHO Cells The tetra-specific GNC antibodies listed in TABLEs 3 and 4 were tested for binding to Chinese hamster ovary cells (CHO) cells stably expressing a full-length human ROR1. Antibodies were prepared at 2× final concentration and titrated 1:5 across 3 wells of a 96 well plate in 50 ul of PBS/2% FBS and then 5,000 ROR1-CHO cells in 50 ul PBS/2% FBS were added. This mixture was incubated for 30 minutes on ice, washed once with 200 ul PBS/2% FBS, and then the secondary antibody PE Goat anti-Human IgG Fc at 1:1000 dilution of stock was added, and this mixture was incubated for 30 minutes on ice. Cells were washed 2×200 ul PBS/2% FBS, resuspended in 50 ul PBS/2% FBS and analyzed on a BD LSRFORTESSA and the binding profile is shown in FIG. 5. All of the tetra-specific GNC antibodies except for the control SI-27E12 contain a 41BB binding domain, 460C3, 420H5, or 466F6 and bound to 41BB expressing CHO cells with varying intensity.

[2] = target: T2, human PD-L1 (human, UniProt Q9NZQ7 19-290); assay: FACS on human PD-L1 transfected CHO cells
T2 construct: whole, on cells; also called PDL1 expressing CHO cells; human PD-L1 transfected CHO cells
Method: as §1, with “3:” for “2:”, “PDL1” for “41BB”, “[…]” for “a full-length”, “6.” for “5. All of the tetra-specific GNC antibodies except for the control SI-27E12 contain a 41BB binding domain, 460C3, 420H5, or 466F6 and bound to 41BB expressing CHO cells with varying intensity.”

[3] = target: T3, full-length human ROR1 (human, UniProt Q01973 30-937); assay: FACS on CHO cells stably expressing full-length human ROR1
T3 construct: whole, on cells; also called human ROR1 transfected CHO cells; ROR1-CHO cells
Method: as §1, with “Example 1:” for “Example 2:”, “Tetra-Specific Specific” for “Tetra-Specific GNC”, “Human ROR1” for “Human 41BB”, “FIG. 4.” for “FIG. 5. All of the tetra-specific GNC antibodies except for the control SI-27E12 contain a 41BB binding domain, 460C3, 420H5, or 466F6 and bound to 41BB expressing CHO cells with varying intensity.”

T3 sequence (Q01973 30-937): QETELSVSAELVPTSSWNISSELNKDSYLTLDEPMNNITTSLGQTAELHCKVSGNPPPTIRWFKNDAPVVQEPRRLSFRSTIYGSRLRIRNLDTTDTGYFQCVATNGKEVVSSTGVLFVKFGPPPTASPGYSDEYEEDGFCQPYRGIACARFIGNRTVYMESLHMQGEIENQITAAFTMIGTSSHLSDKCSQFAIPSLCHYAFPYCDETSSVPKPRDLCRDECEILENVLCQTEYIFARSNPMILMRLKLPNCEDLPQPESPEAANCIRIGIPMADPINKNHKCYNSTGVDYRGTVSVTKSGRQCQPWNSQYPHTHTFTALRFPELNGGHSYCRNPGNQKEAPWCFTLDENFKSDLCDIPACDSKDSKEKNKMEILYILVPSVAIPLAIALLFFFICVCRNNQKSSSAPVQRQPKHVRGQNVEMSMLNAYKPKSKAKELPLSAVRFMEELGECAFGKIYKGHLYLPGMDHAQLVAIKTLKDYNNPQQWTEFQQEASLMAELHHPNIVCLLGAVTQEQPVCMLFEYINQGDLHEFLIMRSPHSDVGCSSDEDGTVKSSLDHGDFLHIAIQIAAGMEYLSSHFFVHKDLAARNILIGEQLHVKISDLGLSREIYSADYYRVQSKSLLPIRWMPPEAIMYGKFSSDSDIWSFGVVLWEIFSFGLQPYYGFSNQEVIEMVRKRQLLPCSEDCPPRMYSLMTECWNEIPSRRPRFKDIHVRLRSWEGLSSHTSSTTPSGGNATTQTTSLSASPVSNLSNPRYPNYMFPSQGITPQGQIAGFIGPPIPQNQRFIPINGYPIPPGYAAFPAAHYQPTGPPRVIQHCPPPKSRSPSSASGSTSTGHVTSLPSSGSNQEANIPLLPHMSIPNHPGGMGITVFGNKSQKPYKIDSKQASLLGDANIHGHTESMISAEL
T2 sequence (Q9NZQ7 19-290): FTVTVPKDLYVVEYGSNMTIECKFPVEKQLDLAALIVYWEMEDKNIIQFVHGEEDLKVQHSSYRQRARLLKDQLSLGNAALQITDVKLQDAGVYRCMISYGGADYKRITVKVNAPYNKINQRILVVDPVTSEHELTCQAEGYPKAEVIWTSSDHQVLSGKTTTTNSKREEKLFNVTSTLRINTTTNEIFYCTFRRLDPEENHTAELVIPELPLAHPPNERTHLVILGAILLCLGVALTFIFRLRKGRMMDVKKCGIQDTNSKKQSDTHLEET
T1 sequence (Q07011 24-255): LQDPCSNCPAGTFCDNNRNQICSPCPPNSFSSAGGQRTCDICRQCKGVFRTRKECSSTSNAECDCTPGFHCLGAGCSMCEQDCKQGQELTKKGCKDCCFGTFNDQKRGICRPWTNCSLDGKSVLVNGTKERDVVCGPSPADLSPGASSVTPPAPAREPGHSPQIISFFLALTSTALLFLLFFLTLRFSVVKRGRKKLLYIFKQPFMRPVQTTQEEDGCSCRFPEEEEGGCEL

binding result [1]: binds
binding result [2]: binds
binding result [3]: binds
B2: SI-35E18 (460C3-L1H1-scFv × PL230C6-Fab × 323H7-H4L1-scFv × 284A10-H1L1-scFv) (bispecific antibody, human IgG1, kappa)
heavy: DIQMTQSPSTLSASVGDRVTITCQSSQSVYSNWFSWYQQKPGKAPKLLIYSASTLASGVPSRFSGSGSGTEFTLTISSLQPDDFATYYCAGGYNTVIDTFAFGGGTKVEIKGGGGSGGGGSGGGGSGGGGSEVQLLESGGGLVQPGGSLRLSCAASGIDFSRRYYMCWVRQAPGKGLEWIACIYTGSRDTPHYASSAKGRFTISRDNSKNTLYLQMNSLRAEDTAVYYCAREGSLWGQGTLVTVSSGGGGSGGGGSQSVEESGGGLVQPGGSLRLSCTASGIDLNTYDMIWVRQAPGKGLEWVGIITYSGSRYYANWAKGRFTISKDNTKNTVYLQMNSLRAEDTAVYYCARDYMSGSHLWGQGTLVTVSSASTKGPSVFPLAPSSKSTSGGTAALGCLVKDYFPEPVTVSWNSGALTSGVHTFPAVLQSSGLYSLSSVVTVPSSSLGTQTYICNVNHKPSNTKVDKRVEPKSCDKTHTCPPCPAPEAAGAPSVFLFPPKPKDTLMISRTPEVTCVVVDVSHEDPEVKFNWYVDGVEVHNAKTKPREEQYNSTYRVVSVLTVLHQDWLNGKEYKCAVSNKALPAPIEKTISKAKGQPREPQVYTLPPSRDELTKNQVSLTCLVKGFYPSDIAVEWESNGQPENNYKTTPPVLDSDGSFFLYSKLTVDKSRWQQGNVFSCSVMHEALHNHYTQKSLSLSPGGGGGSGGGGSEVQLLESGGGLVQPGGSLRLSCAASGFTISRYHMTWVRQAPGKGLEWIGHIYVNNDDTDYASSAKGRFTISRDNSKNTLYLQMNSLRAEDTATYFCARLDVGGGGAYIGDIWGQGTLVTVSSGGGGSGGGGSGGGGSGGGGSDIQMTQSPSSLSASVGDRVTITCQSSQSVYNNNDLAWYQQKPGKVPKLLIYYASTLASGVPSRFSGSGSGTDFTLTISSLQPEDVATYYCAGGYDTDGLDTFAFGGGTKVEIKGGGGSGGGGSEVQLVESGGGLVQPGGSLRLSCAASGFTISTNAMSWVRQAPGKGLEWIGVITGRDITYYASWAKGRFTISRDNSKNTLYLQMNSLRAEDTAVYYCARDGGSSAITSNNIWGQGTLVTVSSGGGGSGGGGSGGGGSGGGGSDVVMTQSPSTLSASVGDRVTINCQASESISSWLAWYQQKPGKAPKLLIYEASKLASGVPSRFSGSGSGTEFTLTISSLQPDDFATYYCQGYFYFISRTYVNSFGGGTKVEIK
light: AYDMTQSPSSVSASVGDRVTIKCQASEDIYSFLAWYQQKPGKAPKLLIHSASSLASGVPSRFSGSGSGTDFTLTISSLQPEDFATYYCQQGYGKNNVDNAFGGGTKVEIKRTVAAPSVFIFPPSDEQLKSGTASVVCLLNNFYPREAKVQWKVDNALQSGNSQESVTEQDSKDSTYSLSSTLTLSKADYEKHKVYACEVTHQGLSSPVTKSFNRGEC
notes: Tetra-specific GNC antibody (41BB x PD-L1 x ROR1 x CD3), IgG1 null2 Fc

binding result [1]: binds
binding result [2]: binds
binding result [3]: binds
B3: SI-35E21 (bispecific antibody, not shown: small tags and cut ends)
heavy (part 1 of 7): DIQMTQSPSTLSASVGDRVTITCQSSQSVYSNWFSWYQQKPGKAPKLLIYSASTLASGVPSRFSGSGSGTEFTLTISSLQPDDFATYYCAGGYNTVIDTFAFGGGTKVEIK
heavy (part 2 of 7): EVQLLESGGGLVQPGGSLRLSCAASGIDFSRRYYMCWVRQAPGKGLEWIACIYTGSRDTPHYASSAKGRFTISRDNSKNTLYLQMNSLRAEDTAVYYCAREGSLWGQGTLVTVSS
heavy (part 3 of 7): not shown
heavy (part 4 of 7): EVQLVESGGGLVQPGGSLRLSCTASGFSLSSYAMSWVRQAPGRGLEWIGIIYASGSTYYASSAKGRFTISKDNTKNTVDLQMNSLRAEDTAVYYCARIYDGMDLWGQGTLVTVSS
heavy (part 5 of 7): DIQMTQSPSSLSASVGDRVTINCQASQNIYSYLSWYQQKPGKVPKRLIYLASTLASGVPSRFSGSGSGTDYTLTISSLQPEDVATYYCQSNYNGNYGFGGGTKVEIK
heavy (part 6 of 7): EVQLVESGGGLVQPGGSLRLSCAASGFTISTNAMSWVRQAPGKGLEWIGVITGRDITYYASWAKGRFTISRDNSKNTLYLQMNSLRAEDTAVYYCARDGGSSAITSNNIWGQGTLVTVSS
heavy (part 7 of 7): DVVMTQSPSTLSASVGDRVTINCQASESISSWLAWYQQKPGKAPKLLIYEASKLASGVPSRFSGSGSGTEFTLTISSLQPDDFATYYCQGYFYFISRTYVNSFGGGTKVEIK
light: B2 light
notes: Tetra-specific; the listing has only VHv3/VLv2

binding result [1]: binds
binding result [2]: binds
binding result [3]: binds
B5: SI-35E23 (bispecific antibody, not shown: small tags and cut ends)
heavy (part 1 of 7): DVVMTQSPSSVSASVGDRVTITCQASQNIRTYLSWYQQKPGKAPKLLIYAAANLASGVPSRFSGSGSGTDFTLTISDLEPGDAATYYCQSTYLGTDYVGGAFGGGTKVEIK
heavy (part 2 of 7): RSLVESGGGLVQPGGSLRLSCTASGFTISSYHMQWVRQAPGKGLEYIGTISSGGNVYYASSARGRFTISRPSSKNTVDLQMNSLRAEDTAVYYCARDSGYSDPMWGQGTLVTVSS
heavy (part 3 of 7): not shown
heavy (part 4 of 7): B3 heavy (part 4 of 7)
heavy (part 5 of 7): B3 heavy (part 5 of 7)
heavy (part 6 of 7): B3 heavy (part 6 of 7)
heavy (part 7 of 7): B3 heavy (part 7 of 7)
light: B2 light
notes: as for B3

binding result [1]: binds
binding result [2]: binds
B6: SI-35E2 (bispecific antibody, not shown: small tags and cut ends)
heavy (part 1 of 7): B3 heavy (part 1 of 7)
heavy (part 2 of 7): B3 heavy (part 2 of 7)
heavy (part 3 of 7): not shown
heavy (part 4 of 7): QSLVESGGGLVQPGGSLRLSCTASGFSLSRYYMTWVRQAPGKGLEWIGTIYTSGSTWYASWTKGRFTISKDNTKNTVDLQMNSLRAEDTAVYYCARSYYGGDKTGLGIWGQGTLVTVSS
heavy (part 5 of 7): DIQMTQSPSTLSASVGDRVTITCQASQSIDSWLSWYQQKPGKAPKLLIYQASTLASGVPSRFSGSGSGTEFTLTISSLQPDDFATYYCQSAYGVSGTSSYLYTFGGGTKVEIK
heavy (part 6 of 7): EVKLDETGGGLVQPGRPMKLSCVASGFTFSDYWMNWVRQSPEKGLEWVAQIRNKPYNYETYYSDSVKGRFTISRDDSKSSVYLQMNNLRVEDMGIYYCTGSYYGMDYWGQGTSVTVSS
heavy (part 7 of 7): DVVMTQTPLSLPVSLGDQASISCRSSQSLVHSNGNTYLRWYLQKPGQSPKVLIYKVSNRFSGVPDRFSGSGSGTDFTLKISRVEAEDLGVYFCSQSTHVPWTFGGGTKLEIK
light: B2 light
notes: the listing has only VHv3/VLv2

The remaining lines, values behind:

B1: SI-27E15 (bispecific antibody, not shown: small tags and cut ends)
heavy (part 1 of 7): B3 heavy (part 1 of 7)
heavy (part 2 of 7): B3 heavy (part 2 of 7)
heavy (part 3 of 7): not shown
heavy (part 4 of 7): B6 heavy (part 4 of 7)
heavy (part 5 of 7): B6 heavy (part 5 of 7)
heavy (part 6 of 7): B3 heavy (part 6 of 7) with F27I, T28D, I29L, T31S, T105N, N107K
heavy (part 7 of 7): B3 heavy (part 7 of 7) with V2I, V3Q, N22T, S102A
light: DVVMTQTPLSLPVSLGDQASISCRSSQSLVHSNGNTYLRWYLQKPGQSPKVLIYKVSNRFSGVPDRFSGSGSGTDFTLKISRVEAEDLGVYFCSQSTHVPWTFGGGTKLEIKRTVAAPSVFIFPPSDEQLKSGTASVVCLLNNFYPREAKVQWKVDNALQSGNSQESVTEQDSKDSTYSLSSTLTLSKADYEKHKVYACEVTHQGLSSPVTKSFNRGEC
notes: also called control SI-27E15
binding result [1]: binds

B4: SI-35E22 (bispecific antibody, not shown: small tags and cut ends)
heavy (part 1 of 7): ALVMTQSPSTLSASVGDRVTINCQASEDIDTYLAWYQQKPGKAPKLLIFYASDLASGVPSRFSGSGSGTEFTLTISSLQPDDFATYYCQGGYYTSSADTRGAFGGGTKVEIK
heavy (part 2 of 7): QSLVESGGGLVQPGGSLRLSCAASGFSFSSNYWICWVRQAPGKGLEWIACIYVGSSGDTYYASSAKGRFTISRDNSKNTLYLQMNSLRAEDTAVYYCARDSSSYYMFNLWGQGTLVTVSS
heavy (part 3 of 7): not shown
heavy (part 4 of 7): B3 heavy (part 4 of 7)
heavy (part 5 of 7): B3 heavy (part 5 of 7)
heavy (part 6 of 7): B3 heavy (part 6 of 7)
heavy (part 7 of 7): B3 heavy (part 7 of 7)
light: B2 light
notes: as for B3
binding result [1]: binds
binding result [2]: binds
binding result [3]: binds

B7: SI-27E13 (bispecific antibody, not shown: small tags and cut ends)
heavy (part 1 of 7): B3 heavy (part 1 of 7)
heavy (part 2 of 7): B3 heavy (part 2 of 7)
heavy (part 3 of 7): not shown
heavy (part 4 of 7): B6 heavy (part 6 of 7)
heavy (part 5 of 7): B6 heavy (part 7 of 7)
heavy (part 6 of 7): B3 heavy (part 6 of 7) with F27I, T28D, I29L, T31S, T105N, N107K
heavy (part 7 of 7): B3 heavy (part 7 of 7) with V2I, V3Q, N22T, S102A
light: B2 light
notes: as for B6
binding result [1]: binds
binding result [2]: binds

B8: SI-27E12 (bispecific antibody, not shown: small tags and cut ends)
heavy (part 1 of 7): B6 heavy (part 7 of 7)
heavy (part 2 of 7): B6 heavy (part 6 of 7)
heavy (part 3 of 7): not shown
heavy (part 4 of 7): B6 heavy (part 4 of 7)
heavy (part 5 of 7): B6 heavy (part 5 of 7)
heavy (part 6 of 7): B3 heavy (part 6 of 7) with F27I, T28D, I29L, T31S, T105N, N107K
heavy (part 7 of 7): B3 heavy (part 7 of 7) with V2I, V3Q, N22T, S102A
light: B2 light
notes: the listing has only VHv3/VLv2; also called control SI-27E12
binding result [2]: binds
